Experimental data as given in US20200262877A1, “ION CHANNEL-BINDING PEPTIDES AND METHODS OF USE THEREOF” (priority 2017, published 2020).

Experiments:
5HT3a = target: T1, 5HT3a (Homo sapiens, UniProt P46098); assay: Ion channel panel (IonWorks Barracuda): 5HT3a; format: cell-based
T1 construct: host or cells: HEK293 or CHO
T1 sequence (P46098 whole entry, looked up): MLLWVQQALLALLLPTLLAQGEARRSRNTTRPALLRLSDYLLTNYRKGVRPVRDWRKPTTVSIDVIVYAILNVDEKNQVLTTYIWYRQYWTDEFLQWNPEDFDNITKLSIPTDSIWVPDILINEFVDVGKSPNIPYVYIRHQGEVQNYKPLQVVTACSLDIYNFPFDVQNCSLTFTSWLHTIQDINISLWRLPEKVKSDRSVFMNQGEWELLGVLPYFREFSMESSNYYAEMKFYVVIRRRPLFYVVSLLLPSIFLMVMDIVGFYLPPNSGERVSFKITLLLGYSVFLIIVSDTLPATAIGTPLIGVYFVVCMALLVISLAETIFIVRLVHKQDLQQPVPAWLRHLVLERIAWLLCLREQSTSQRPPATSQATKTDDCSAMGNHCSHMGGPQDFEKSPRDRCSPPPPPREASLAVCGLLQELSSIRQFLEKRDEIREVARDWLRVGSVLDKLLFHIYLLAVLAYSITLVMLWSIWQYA
How it was run: (§1)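 Peptides were tested in duplicate at final 20 μM and 200 nM, with concentration set by amino acid analysis, in HEPES-buffered saline. They were applied for at least 5 min to HEK293 or CHO cells transfected with each channel. Currents were expressed as % inhibition, 1-(Ipeptide/Icontrol)×100, or % activation, Ipeptide/Icontrol×100, against a channel-matched reference compound.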

α3β4 = target: T2, α3β4 (Homo sapiens, UniProt P30926+P32297); assay: Ion channel panel (IonWorks Barracuda): α3β4; format: cell-based; settings: 100% = no change, <100% = inhibition
T2 construct: host or cells: HEK293 or CHO
How it was run: as §1

α4β2 = target: T3, α4β2 (Homo sapiens, UniProt P17787+P43681); assay: Ion channel panel (IonWorks Barracuda): α4β2; format: cell-based; settings: 100% = no change, <100% = inhibition
T3 construct: host or cells: HEK293 or CHO
How it was run: as §1

Cav2.1 = target: T4, Cav2.1 (Homo sapiens, UniProt O00555); assay: cell-based; settings: 100% = no change, <100% = inhibition
T4 construct: host or cells: HEK293 or CHO
How it was run: as §1

Cav2.2 = target: T5, Cav2.2 (Homo sapiens, UniProt Q00975); assay: cell-based; settings: 100% = no change, <100% = inhibition
T5 construct: host or cells: HEK293 or CHO
How it was run: as §1

Kv2.1 = target: T6, Kv2.1 (Homo sapiens, UniProt Q14721); assay: cell-based; settings: 100% = no change, <100% = inhibition
T6 construct: host or cells: HEK293 or CHO
How it was run: as §1

GABA = assay: Ion channel panel (IonWorks Barracuda): GABA; format: cell-based; settings: 100% = no change, <100% = inhibition
How it was run: as §1

Nav1.5 = Nav1.5 (Homo sapiens, UniProt Q14524); assay: in vitro; settings: 100% = no change; for Activity of Nav1.5 with peptide, expressed as a percentage of the reference compound: peptide at 0.2 μM; for Activity of Nav1.5 with peptide (percentage of the reference compound): peptide at 20 μM
How it was run: as §1

hERG = hERG (Homo sapiens, UniProt Q12809); assay: in vitro; settings: 100% = no change, <100% = inhibition
How it was run: as §1

Kir2.1 = target: T7, Kir2.1 (Homo sapiens, UniProt P63252); assay: Ion channel panel (IonWorks Barracuda): Kir2.1; format: cell-based; settings: 100% = no change, <100% = inhibition
T7 construct: host or cells: HEK293 or CHO
How it was run: as §1

Kv1.1 = target: T8, Kv1.1 (Homo sapiens, UniProt Q09470); assay: cell-based; format: cell-based; settings: 100% = no change, <100% = inhibition
T8 construct: host or cells: HEK293 or CHO
How it was run: as §1

Kv1.2 = target: T9, Kv1.2 (Homo sapiens, UniProt P16389); assay: cell-based; format: cell-based; settings: 100% = no change, <100% = inhibition
T9 construct: host or cells: HEK293 or CHO
How it was run: as §1

Kv1.3 = target: T10, Kv1.3 (Homo sapiens, UniProt P22001); assay: cell-based; format: cell-based; settings: 100% = no change, <100% = inhibition
T10 construct: host or cells: HEK293 or CHO
How it was run: as §1

Nav1.7 = target: T11, Nav1.7 (Homo sapiens, UniProt Q15858); assay: cell-based; format: cell-based; settings: 100% = no change; for Activity of Nav1.7 with peptide, expressed as a percentage of the reference compound: peptide at 0.2 μM; for Activity of Nav1.7 with peptide (percentage of the reference compound): peptide at 20 μM
T11 construct: host or cells: HEK293 or CHO

NR2A = target: T12, NR2A (Homo sapiens, UniProt Q12879); assay: Ion channel panel (IonWorks Barracuda): NR2A; format: cell-based; settings: 100% = no change, <100% = inhibition
T12 construct: host or cells: HEK293 or CHO
How it was run: as §1

NR2B = target: T13, NR2B (Homo sapiens, UniProt Q13224); assay: Ion channel panel (IonWorks Barracuda): NR2B; format: cell-based; settings: 100% = no change, <100% = inhibition
T13 construct: host or cells: HEK293 or CHO
How it was run: as §1

TRPA1 = target: T14, TRPA1 (Homo sapiens, UniProt O75762); assay: Ion channel panel (IonWorks Barracuda): TRPA1; format: cell-based; settings: 100% = no change, <100% = inhibition
T14 construct: host or cells: HEK293 or CHO
How it was run: as §1

TRPV1 = target: T15, TRPV1 (Homo sapiens, UniProt Q8NER1); assay: Ion channel panel (IonWorks Barracuda): TRPV1; format: cell-based; settings: 100% = no change, <100% = inhibition
T15 construct: host or cells: HEK293 or CHO
How it was run: as §1

[1] = first of two Nav1.5 columns (probably TP1)
[2] = second of two Nav1.5 columns (probably TP2)
[3] = first of two Nav1.7 columns (probably TP1)
[4] = second of two Nav1.7 columns (probably TP2)

T11 sequence (Q15858 whole entry): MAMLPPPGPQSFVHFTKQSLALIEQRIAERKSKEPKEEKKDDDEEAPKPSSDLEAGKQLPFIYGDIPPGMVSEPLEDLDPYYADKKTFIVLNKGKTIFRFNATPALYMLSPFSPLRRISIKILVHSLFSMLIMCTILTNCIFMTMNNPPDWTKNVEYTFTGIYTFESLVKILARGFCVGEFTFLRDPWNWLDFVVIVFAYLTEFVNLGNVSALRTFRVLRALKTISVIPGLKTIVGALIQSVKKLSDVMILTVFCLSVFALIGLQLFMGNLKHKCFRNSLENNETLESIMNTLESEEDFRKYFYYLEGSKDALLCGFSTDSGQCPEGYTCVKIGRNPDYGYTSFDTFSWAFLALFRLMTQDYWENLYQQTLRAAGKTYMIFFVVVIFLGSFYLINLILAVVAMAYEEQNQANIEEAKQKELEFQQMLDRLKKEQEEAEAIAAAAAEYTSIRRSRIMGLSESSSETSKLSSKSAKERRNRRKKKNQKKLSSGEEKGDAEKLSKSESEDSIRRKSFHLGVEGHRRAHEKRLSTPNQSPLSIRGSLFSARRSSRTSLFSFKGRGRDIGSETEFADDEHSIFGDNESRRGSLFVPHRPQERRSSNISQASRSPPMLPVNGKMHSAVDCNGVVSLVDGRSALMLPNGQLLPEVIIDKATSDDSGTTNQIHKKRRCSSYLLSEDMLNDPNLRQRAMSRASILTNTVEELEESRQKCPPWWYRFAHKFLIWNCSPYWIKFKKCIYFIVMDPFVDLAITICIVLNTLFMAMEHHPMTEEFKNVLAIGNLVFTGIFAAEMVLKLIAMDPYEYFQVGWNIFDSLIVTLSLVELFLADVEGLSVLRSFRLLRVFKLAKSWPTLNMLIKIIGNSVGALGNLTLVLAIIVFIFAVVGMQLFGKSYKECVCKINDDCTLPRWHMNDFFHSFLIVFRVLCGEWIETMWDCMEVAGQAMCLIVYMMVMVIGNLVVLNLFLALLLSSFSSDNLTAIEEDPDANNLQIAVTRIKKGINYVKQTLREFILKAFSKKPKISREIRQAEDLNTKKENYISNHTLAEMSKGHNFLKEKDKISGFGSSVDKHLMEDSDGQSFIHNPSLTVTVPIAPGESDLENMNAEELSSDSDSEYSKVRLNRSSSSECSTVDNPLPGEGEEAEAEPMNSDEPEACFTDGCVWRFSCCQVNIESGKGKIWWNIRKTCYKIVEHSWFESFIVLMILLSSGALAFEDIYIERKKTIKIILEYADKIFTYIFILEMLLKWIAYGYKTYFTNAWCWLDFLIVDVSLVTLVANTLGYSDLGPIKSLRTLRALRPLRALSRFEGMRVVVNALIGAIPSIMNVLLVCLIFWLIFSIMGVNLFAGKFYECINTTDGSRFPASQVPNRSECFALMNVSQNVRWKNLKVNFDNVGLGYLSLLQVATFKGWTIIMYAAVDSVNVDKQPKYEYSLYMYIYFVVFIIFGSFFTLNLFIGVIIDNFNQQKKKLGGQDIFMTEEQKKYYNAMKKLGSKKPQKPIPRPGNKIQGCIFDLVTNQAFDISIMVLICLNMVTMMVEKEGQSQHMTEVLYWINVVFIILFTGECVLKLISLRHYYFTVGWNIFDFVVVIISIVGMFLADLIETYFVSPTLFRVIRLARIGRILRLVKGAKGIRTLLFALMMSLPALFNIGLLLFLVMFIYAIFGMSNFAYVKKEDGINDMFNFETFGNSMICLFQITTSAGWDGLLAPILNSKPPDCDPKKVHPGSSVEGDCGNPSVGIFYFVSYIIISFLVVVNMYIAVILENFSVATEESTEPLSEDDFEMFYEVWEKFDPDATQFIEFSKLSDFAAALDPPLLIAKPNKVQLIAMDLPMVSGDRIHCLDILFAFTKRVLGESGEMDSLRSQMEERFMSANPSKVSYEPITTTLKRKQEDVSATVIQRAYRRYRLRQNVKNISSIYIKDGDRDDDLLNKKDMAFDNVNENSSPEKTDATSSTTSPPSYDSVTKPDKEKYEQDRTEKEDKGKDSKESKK
Chain of Nav1.5 (Q14524 whole entry): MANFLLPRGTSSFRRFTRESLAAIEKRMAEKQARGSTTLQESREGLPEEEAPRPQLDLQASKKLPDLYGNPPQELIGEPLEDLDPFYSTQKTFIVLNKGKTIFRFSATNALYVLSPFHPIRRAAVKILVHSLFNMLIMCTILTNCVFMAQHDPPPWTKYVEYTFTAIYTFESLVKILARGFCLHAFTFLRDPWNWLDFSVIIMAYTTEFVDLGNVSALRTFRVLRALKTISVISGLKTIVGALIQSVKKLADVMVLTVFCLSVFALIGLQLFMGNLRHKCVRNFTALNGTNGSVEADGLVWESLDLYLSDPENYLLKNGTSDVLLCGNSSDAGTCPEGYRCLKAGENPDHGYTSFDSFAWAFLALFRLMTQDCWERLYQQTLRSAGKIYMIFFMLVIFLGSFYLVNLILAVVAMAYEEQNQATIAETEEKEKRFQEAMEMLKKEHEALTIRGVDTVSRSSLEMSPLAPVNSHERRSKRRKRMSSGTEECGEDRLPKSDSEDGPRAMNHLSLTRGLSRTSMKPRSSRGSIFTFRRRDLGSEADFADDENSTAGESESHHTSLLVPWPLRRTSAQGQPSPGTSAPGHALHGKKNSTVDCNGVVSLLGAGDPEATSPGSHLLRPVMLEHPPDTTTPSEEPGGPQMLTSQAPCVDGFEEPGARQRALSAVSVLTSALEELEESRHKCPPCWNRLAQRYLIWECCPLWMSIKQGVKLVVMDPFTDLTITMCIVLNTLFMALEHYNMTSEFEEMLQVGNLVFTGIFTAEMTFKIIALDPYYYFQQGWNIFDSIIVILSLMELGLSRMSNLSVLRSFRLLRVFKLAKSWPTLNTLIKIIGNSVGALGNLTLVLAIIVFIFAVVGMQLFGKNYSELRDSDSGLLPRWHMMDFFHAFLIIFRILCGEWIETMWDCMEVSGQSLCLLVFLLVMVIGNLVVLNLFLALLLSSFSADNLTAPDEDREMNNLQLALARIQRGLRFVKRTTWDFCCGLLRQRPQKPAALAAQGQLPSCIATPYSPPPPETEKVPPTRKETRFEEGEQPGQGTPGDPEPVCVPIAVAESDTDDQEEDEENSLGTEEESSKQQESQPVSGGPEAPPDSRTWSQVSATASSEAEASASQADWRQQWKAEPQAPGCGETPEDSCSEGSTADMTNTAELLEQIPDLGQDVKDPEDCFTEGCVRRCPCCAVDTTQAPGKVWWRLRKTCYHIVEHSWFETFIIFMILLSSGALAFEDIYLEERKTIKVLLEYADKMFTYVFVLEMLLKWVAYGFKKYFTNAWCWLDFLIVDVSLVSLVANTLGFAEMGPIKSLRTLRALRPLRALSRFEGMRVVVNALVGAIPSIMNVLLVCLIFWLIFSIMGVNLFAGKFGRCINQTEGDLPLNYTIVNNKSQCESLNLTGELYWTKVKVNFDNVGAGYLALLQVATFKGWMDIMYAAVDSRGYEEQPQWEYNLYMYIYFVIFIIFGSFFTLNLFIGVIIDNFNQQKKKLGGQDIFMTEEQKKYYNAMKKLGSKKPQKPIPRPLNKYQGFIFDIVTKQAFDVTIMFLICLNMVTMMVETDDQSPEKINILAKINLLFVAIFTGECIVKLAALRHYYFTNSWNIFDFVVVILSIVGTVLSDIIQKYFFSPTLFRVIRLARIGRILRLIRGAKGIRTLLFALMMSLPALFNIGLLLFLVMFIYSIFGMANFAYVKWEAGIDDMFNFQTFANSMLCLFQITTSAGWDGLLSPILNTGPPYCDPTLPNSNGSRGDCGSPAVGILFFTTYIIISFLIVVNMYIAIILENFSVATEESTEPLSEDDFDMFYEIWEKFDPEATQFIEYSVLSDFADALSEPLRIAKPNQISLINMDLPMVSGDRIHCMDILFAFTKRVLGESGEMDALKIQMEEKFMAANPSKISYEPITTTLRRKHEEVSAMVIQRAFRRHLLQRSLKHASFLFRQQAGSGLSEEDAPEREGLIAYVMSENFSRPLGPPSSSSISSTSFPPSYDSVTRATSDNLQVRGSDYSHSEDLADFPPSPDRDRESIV
T7 sequence (P63252 whole entry): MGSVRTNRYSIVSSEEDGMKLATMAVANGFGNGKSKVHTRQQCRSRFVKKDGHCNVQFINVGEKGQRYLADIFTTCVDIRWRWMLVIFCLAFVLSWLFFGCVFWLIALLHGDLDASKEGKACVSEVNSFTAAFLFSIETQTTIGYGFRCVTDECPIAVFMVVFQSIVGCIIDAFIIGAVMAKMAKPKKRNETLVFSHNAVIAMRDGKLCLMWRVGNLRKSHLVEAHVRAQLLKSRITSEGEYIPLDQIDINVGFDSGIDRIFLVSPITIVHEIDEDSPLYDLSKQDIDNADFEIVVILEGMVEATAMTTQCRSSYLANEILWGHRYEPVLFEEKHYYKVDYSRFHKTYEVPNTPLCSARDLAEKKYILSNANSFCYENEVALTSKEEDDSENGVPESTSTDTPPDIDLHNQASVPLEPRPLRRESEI
T10 sequence (P22001 whole entry): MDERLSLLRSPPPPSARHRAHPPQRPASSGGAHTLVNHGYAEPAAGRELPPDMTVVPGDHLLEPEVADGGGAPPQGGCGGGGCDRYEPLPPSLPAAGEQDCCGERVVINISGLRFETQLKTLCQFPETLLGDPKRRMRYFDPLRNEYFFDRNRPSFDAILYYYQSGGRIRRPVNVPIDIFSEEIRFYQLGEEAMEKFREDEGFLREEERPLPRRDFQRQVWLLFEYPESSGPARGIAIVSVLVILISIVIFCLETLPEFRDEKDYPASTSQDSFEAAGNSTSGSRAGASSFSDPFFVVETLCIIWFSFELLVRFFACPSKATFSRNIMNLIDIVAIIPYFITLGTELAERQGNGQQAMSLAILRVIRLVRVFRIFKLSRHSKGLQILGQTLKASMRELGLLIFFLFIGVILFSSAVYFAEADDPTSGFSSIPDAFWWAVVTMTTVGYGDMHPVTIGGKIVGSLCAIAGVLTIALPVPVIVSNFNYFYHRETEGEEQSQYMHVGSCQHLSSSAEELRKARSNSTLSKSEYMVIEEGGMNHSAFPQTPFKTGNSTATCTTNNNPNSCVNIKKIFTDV

**Q.** What does the source list for “2 (GSEVIRCSGSKQCYGPCKQQTGCTNSKCMNKVCKCYGCG) [compound 2]”?
**A.** Activity of 5HT3a with peptide (percentage of the reference compound) (5HT3a): 88%; Activity of 5HT3a with peptide, expressed as a percentage of the reference compound (5HT3a): 92%; Activity of a3b4 with peptide, expressed as a percentage of the reference compound (α3β4; peptide at 0.2 μM): 85%; Activity of a3b4 with peptide (percentage of the reference compound) (α3β4; peptide at 20 μM): 88%; Activity of a4b2 with peptide, expressed as a percentage of the reference compound (α4β2; peptide at 0.2 μM): 95%; Activity of a4b2 with peptide (percentage of the reference compound) (α4β2; peptide at 20 μM): 87%; Activity of Cav2.1 with peptide, expressed as a percentage of the reference compound (Cav2.1; peptide at 0.2 μM): 103%; Activity of Cav2.1 with peptide (percentage of the reference compound) (Cav2.1; peptide at 20 μM): 108%; Activity of Cav2.2 with peptide, expressed as a percentage of the reference compound (Cav2.2; peptide at 0.2 μM): 104%; Activity of Cav2.2 with peptide (percentage of the reference compound) (Cav2.2; peptide at 20 μM): 104%; Activity of Kv2.1 with peptide, expressed as a percentage of the reference compound (Kv2.1; peptide at 0.2 μM): 80%; Activity of Kv2.1 with peptide (percentage of the reference compound) (Kv2.1; peptide at 20 μM): 87%; Activity of GABA with peptide, expressed as a percentage of the reference compound (GABA; peptide at 0.2 μM): 104%; Activity of GABA with peptide (percentage of the reference compound) (GABA; peptide at 20 μM): 97%; Activity of Nav1.5 with peptide, expressed as a percentage of the reference compound (Nav1.5; [1]): 95%; Activity of Nav1.5 with peptide, expressed as a percentage of the reference compound (Nav1.5; [2]): 93%; Activity of Nav1.5 with peptide (percentage of the reference compound) (Nav1.5; [1]): 102%; Activity of Nav1.5 with peptide (percentage of the reference compound) (Nav1.5; [2]): 101%; Activity of hERG with peptide, expressed as a percentage of the reference compound (hERG; peptide at 0.2 μM): 97%; Activity of hERG with peptide (percentage of the reference compound) (hERG; peptide at 20 μM): 76%; Activity of Kir2.1 with peptide, expressed as a percentage of the reference compound (Kir2.1; peptide at 0.2 μM): 101%; Activity of Kir2.1 with peptide (percentage of the reference compound) (Kir2.1; peptide at 20 μM): 89%; Activity of Kv1.1 with peptide, expressed as a percentage of the reference compound (Kv1.1; peptide at 0.2 μM): 114%; Activity of Kv1.1 with peptide (percentage of the reference compound) (Kv1.1; peptide at 20 μM): 68%; Activity of Kv1.2 with peptide, expressed as a percentage of the reference compound (Kv1.2; peptide at 0.2 μM): 34%; Activity of Kv1.2 with peptide (percentage of the reference compound) (Kv1.2; peptide at 20 μM): 39%; Activity of Kv1.3 with peptide, expressed as a percentage of the reference compound (Kv1.3; peptide at 0.2 μM): 8%; Activity of Kv1.3 with peptide (percentage of the reference compound) (Kv1.3; peptide at 20 μM): 1%; Activity of Nav1.7 with peptide, expressed as a percentage of the reference compound (Nav1.7; [3]): 89%; Activity of Nav1.7 with peptide, expressed as a percentage of the reference compound (Nav1.7; [4]): 74%; Activity of Nav1.7 with peptide (percentage of the reference compound) (Nav1.7; [3]): 61%; Activity of Nav1.7 with peptide (percentage of the reference compound) (Nav1.7; [4]): 91%; Activity of NR2A with peptide, expressed as a percentage of the reference compound (NR2A; peptide at 0.2 μM): 102%; Activity of NR2A with peptide (percentage of the reference compound) (NR2A; peptide at 20 μM): 95%; Activity of NR2B with peptide, expressed as a percentage of the reference compound (NR2B; peptide at 0.2 μM): 118%; Activity of NR2B with peptide (percentage of the reference compound) (NR2B; peptide at 20 μM): 72%; Activity of TRPA1 with peptide, expressed as a percentage of the reference compound (TRPA1; peptide at 0.2 μM): 106%; Activity of TRPA1 with peptide (percentage of the reference compound) (TRPA1; peptide at 20 μM): 92%; Activity of TRPV1 with peptide, expressed as a percentage of the reference compound (TRPV1; peptide at 0.2 μM): 95%; Activity of TRPV1 with peptide (percentage of the reference compound) (TRPV1; peptide at 20 μM): 81%
